The values that follow come from article PMC4338625, “Comparison of MAPK specificity across the ETS transcription factor family identifies a high-affinity ERK interaction required for ERG function in prostate cells” (Cell Communication and Signaling : CCS, 2015).

Assay [1] concerns the target ERK2 (pERK2, activated by co-expression with constitutively active MEK) (UniProt P63086). The assay can be described thus: MST; 200 nM fluorescently labeled (RED-NHS) ERK2 incubated 30 minutes at room temperature in the dark with different concentrations of purified ETS1 or ERG; standard glass capillaries; NanoTemper Monolith NT.115, LED 80%, IR laser 80%.
Assay [2] concerns the target T1, ETS1, full-length human, 6x His-tagged (human, UniProt P14921 1-441).
T1 construct: human ETS1, full-length cDNA in pET28a
T1 sequence (looked up): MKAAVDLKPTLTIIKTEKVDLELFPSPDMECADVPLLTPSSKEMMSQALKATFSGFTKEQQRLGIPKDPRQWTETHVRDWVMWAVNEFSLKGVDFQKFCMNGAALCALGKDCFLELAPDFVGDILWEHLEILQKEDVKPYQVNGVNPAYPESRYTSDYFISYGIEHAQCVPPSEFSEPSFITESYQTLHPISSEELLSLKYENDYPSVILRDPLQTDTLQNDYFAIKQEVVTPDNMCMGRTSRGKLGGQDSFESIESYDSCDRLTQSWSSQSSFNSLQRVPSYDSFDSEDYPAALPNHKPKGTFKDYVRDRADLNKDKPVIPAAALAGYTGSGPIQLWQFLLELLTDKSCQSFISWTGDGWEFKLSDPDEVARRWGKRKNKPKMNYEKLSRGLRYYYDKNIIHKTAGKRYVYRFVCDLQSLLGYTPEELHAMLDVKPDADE
The assay is described as above. The following applies: both partners purified.

“ERG (isoform 1), full-length human, 6x His-tagged (natural protein)”: the Kd in assay [1] is 230 nM.

B1: ERK2 (pERK2, activated by co-expression with constitutively active MEK) (enzyme, UniProt P63086 1-358, looked up)
chain: MAAAAAAGPEMVRGQVFDVGPRYTNLSYIGEGAYGMVCSAYDNLNKVRVAIKKISPFEHQTYCQRTLREIKILLRFRHENIIGINDIIRAPTIEQMKDVYIVQDLMETDLYKLLKTQHLSNDHICYFLYQILRGLKYIHSANVLHRDLKPSNLLLNTTCDLKICDFGLARVADPDHDHTGFLTEYVATRWYRAPEIMLNSKGYTKSIDIWSVGCILAEMLSNRPIFPGKHYLDQLNHILGILGSPSQEDLNCIINLKARNYLLSLPHKNKVPWNRLFPNADSKALDLLDKMLTFNPHKRIEVEQALAHPYLEQYYDPSDEPIAEAPFKFDMELDDLPKEKLKELIFEETARFQPGYRS
modifications: phosphorylated by co-expressed constitutively active MEK (pERK2); fluorescently labeled with amine reactive RED-NHS dye (Monolith Protein Labeling Kit RED-NHS)
notes: also called ERK2 kinase; source: co-expressed with constitutively active MEK, purified from bacteria as described [52]
B1 returned a Kd in assay [2] of 1790 nM.
